The values that follow come from publication PMC9586977, “Structure of the pre-mRNA leakage 39-kDa protein reveals a single domain of integrated zf-C3HC and Rsm1 modules” (Scientific Reports, 2022).

The chains are these.
B1: ScPml39_(77–317), truncated Saccharomyces cerevisiae pre-mRNA leakage 39-kDa protein (residues 77–317) (domain or fragment, UniProt Q03760 77-317, looked up)
chain: GFRLHDLRALLKRICSIQNYTRHVLIEWDVRWVNPLTLASKGWEPYQSASQSQVPFKCCCCHAIMTIPLLKNGDDVADYTMKLNEKIWNSNIIGNHLQKCPWRENQVDLNKEYYLSSQNLIREIERIHTEIDRIVSGSNEFSLKRNSSRIFHYLSEKEIQKLAFFFDCKDYSLVGLLLLGYTKFQKDDLVQCTACFHRASLKKLEYTEFNGHALWCRYYNKELLPTMLLELIGKEDKLITK
notes: Pml39 (pre-mRNA leakage 39-kDa protein), Saccharomyces cerevisiae, UniProtKB Q03760, residues 77-317 of 334; holds the zf-C3HC (79-189) and Rsm1 (190-311) modules; Cloned into NcoI/NotI of pET28a; hexahistidine tag removed with PreScission protease; also called truncated ScPml39; source: E. coli BL21(DE3)-RIL CodonPlus, purified (Ni-NTA, HiTrap SP, Superdex 200)
B2: ScMlp1_(1–325), N-terminal fragment of Saccharomyces cerevisiae Myosin-like protein 1 (residues 1–325), homodimer (domain or fragment, UniProt Q02455 1-325, looked up)
chain: MSDHDTPMESIQNGENSDERLNAIASFFGCSLEQVKSFDGDVVKHLNDKLLQFNELKSENLKVTVSFDELKASSLKKIDGLKTEMENVIRENDKIRKERNDTFVKFESVENEKMKLSSELEFVKRKLDDLTEEKKETQSNQQRTLKILDERLKEIELVRVENNRSNSECKKLRSTIMDLETKQQGYITNDLNSRTELERKTQELTLLQSNNDWLEKELRSKNEQYLSYRQKTDKVILDIRNELNRLRNDFQMERTNNDVLKQKNNELSKSLQEKLLEIKGLSDSLNSEKQEFSAEMSLKQRLVDLLESQLNAVKEELNSIRELNT
notes: Cloned into NcoI/NotI of pET28a; hexahistidine tag removed with PreScission protease; Homodimer by SEC-MALS (~80 kDa; expected monomer 41 kDa); also called ΔC-ScMlp1; source: E. coli BL21(DE3)-RIL CodonPlus, purified (Ni-NTA, HiTrap Q, Superdex 200)

The target of data set [1] is B2. The data set is described as follows: ITC; 1.6 mM ScPml39(77-317) injected (2 µl every 180 s) into 350 µl of 70 µM ScMlp1(1-325) in the chamber; 4 °C; 500 mM NaCl, 20 mM HEPES pH 7.5, 0.5 mM TCEP; three independent measurements. The note with it: both partners purified.
Data set [2] concerns the molecule itself. As to the kind of experiment: SEC-MALS; 100 µl of 70 µM ScMlp1(1-325) on Superdex 200 10/300 GL, 0.5 mL/min, 25 °C; 500 mM NaCl, 20 mM HEPES-NaOH pH 7.5, 0.5 mM TCEP.

Regarding B1, in data set [1], the Kd (in general, the equilibrium constant for the complex coming apart) is about 13 µM and the stoichiometry N (as a rule, a count of units in the complex or per binding partner) worked out at 1.
In the case of B2, the “stoichiometry N” value in data set [2] is 2.
